The values below come from patent US20260022186A1.

This assay addresses T1, human NT5E expressed on MDA-MB-231 cells (human) (UniProt P21589).
T1 sequence (looked up): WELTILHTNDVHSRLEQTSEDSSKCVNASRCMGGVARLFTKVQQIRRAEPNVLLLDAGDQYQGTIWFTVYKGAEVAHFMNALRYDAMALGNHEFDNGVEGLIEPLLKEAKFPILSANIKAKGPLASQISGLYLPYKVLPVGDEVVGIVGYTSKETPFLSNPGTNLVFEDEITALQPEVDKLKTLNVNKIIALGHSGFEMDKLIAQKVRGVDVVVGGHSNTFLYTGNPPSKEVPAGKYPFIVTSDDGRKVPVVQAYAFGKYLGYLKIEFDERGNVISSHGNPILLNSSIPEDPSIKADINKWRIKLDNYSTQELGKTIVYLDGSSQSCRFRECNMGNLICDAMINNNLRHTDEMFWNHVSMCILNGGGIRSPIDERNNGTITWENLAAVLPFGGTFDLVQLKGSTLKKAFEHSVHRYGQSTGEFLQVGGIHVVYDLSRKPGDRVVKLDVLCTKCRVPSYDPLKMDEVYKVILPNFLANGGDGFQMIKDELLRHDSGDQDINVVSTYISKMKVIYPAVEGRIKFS
Kind of assay: cell-based or functional assay.

For BMS986179 IgG (antibody), the IC50 of inhibition of NT5E on MDA-MB-231 cells, ATP stood at 1.1 nM and the IC50 of inhibition of NT5E on MDA-MB-231 cells, no ATP was determined as 0.6 nM.
